B1: EZ-1: Thermotoga maritima acetyl xylan esterase variant C277S, untargeted perhydrolase, SEQ ID NO: 424 (protein, listed as Thermotoga maritima)
chain: MAFFDLPLEELKKYRPERYEEKDFDEFWEETLAESEKFPLDPVFERMESHLKTVEAYDVTFSGYRGQRIKGWLLVPKLEEEKLPCVVQYIGYNGGRGFPHDWLFWPSMGYICFVMDTRGQGSGWLKGDTPDYPEGPVDPQYPGFMTRGILDPRTYYYRRVFTDAVRAVEAAASFPQVDQERIVIAGGSQGGGIALAVSALSKKAKALLCDVPFLCHFRRAVQLVDTHPYAEITNFLKTHRDKEEIVFRTLSYFDGVNFAARAKIPALFSVGLMDNISPPSTVFAAYNYYAGPKEIRIYPYNNHEGGGSFQAVEQVKFLKKLFEKG
B2: EZ-7: C277S-link1-DenP308-H6, SEQ ID NO: 429 (protein)
chain: MAFFDLPLEELKKYRPERYEEKDFDEFWEETLAESEKFPLDPVFERMESHLKTVEAYDVTFSGYRGQRIKGWLLVPKLEEEKLPCVVQYIGYNGGRGFPHDWLFWPSMGYICFVMDTRGQGSGWLKGDTPDYPEGPVDPQYPGFMTRGILDPRTYYYRRVFTDAVRAVEAAASFPQVDQERIVIAGGSQGGGIALAVSALSKKAKALLCDVPFLCHFRRAVQLVDTHPYAEITNFLKTHRDKEEIVFRTLSYFDGVNFAARAKIPALFSVGLMDNISPPSTVFAAYNYYAGPKEIRIYPYNNHEGGGSFQAVEQVKFLKKLFEKGGPGSGGAGSPGSAGGPGSTKPPRTPTANTSRPHHNFGSGGGGSPHHHHHH

Key:
[1] = T. maritima C277S/C277T constructs, peracetic acid when bound to bovine enamel (Example 11); format: biochemical; details: bovine enamel exposed to 10 μM enzyme, 4 washes; 100 mM triacetin, 100 mM H2O2, 30 min, 37° C.; no enzyme 570
Summary of the method: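 Enamel blocks equilibrated in 10 mM potassium phosphate, pH 7.2, were incubated with 10 μM enzyme for 30 min at 37° C and washed free of unbound enzyme. Bound enzyme then reacted 30 min at 37° C with 100 mM H2O2 and 100 mM triacetin in 100 mM phosphate, pH 7.2. Peracetic acid was measured by ABTS oxidation (A405) against a standard curve; mean of 3 blocks.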

[2] = Peracetic acid generated after each round of two-step whitening, ABTS (Example 17); format: biochemical, bovine; details: for PAA (ppm) generated after each round of whitening, Rd2: round 2; for PAA (ppm) generated after each round of whitening, Rd3: round 3; for PAA (ppm) generated after each round of whitening, Rd4: round 4; for PAA (ppm) generated after each round of whitening, Rd5: round 5; for PAA (ppm) generated after each round of whitening, Rd1: step 1 enzyme or buffer, step 2 triacetin/H2O2, round 1
Protocol: The samples were diluted 1:100 with 100 mM phosphate buffer and added to ABTS detection reagent as noted in Example 8. Each sample data point represents 2 repeats of independent enamel blocks.

[3] = Two-step bleaching of coffee-tea stained bovine enamel, repeated rounds (Example 17); design: scale not given here; details: for Whiteness Index Rd1: after round 1 of the 2-step process; for Whiteness Index Rd2: after round 2; for Whiteness Index Rd3: after round 3; for Whiteness Index Rd4: after round 4; for Whiteness Index Rd5: after round 5; for ΔWI: before to round 5; for Whiteness Index Before: two-step: 20 μM enzyme (or buffer) 10 min 37° C., rinsed, then 100 mM triacetin, 100 mM H2O2 10 min 37° C., before treatment
Protocol: Bovine enamel incisors were prepared as indicated in Example 1. The stained enamel blocks were embedded in SILLY PUTTY® (Crayola LLC, Easton, Pa.) filled well, a 24-well plate to protect the dentin backside from solution exposure. A solution of 20 μM of each enzyme in 10 mM phosphate buffer, pH 7.2 was prepared and 500 μL of the enzyme solution was added to each enamel blocks and incubated for 10 min at 37° C. The enamel block was then rinsed three times with an additional 500 μL of buffer each time. The enamel blocks were transferred and embedded in a fresh putty well for the whitening process. A solution (200 μL) containing 100 mM phosphate buffer, 100 mM triacetin, 100 mM H2O2, pH 7.2 was added to the enamel and incubated for 10 min at 37° C. The enamel block was removed from the well using forceps, then rinsed and stored in a 1.5 mL of water filled well for color measurements. The 2-step process was repeated 5 times (50 min total). Each sample data point represents 2 repeats of independent enamel blocks.

[4] = Maximum peracetic acid by targeted and untargeted CE-7 perhydrolase with propylene glycol diacetate; format: biochemical; details: substrate propylene glycol diacetate; same reaction conditions as Table 20
Protocol: (§1) These ester substrates were tested for peracetic acid production using a targeted C277S perhydrolase variant, EZ-7 under the same reaction conditions used to generate date for Table 20. Peracetic acid production using propylene glycol diacetate or sucrose octaacetate with the EZ-7 perhydrolase system is shown in Table 21.

[5] = T. maritima C277S/C277T constructs, peracetic acid in solution (Example 11); format: biochemical; details: 0.5 μM enzyme, 100 mM triacetin, 100 mM H2O2, pH 7.2, 10 min, 37° C.; no enzyme 114
Summary of the method: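 Each perhydrolase at 0.5 μM incubated with 100 mM triacetin and 100 mM H2O2 in 10 mM phosphate buffer pH 7.2, 10 min at 37° C, then stopped with H3PO4. Peracetic acid quantified by ABTS/KI oxidation, absorbance at 405 nm, against a peracetic acid standard curve.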

[6] = Maximum peracetic acid by targeted and untargeted CE-7 perhydrolase with sucrose octaacetate; format: biochemical; details: substrate sucrose octaacetate; same reaction conditions as Table 20
Protocol: as §1

[7] = Retention of perhydrolase on hydroxyapatite (SDS-PAGE band strength); format: binding; details: for Unbound (relative band strength): 10 μM enzyme, 0.5% hydroxyapatite, pH 7.2; for Unbound (relative band strength) / HAP Particles (relative band strength) / Wash1 (relative band strength) / Wash2 (relative band strength): relative to enzyme input = 1; for HAP Particles (relative band strength): enzyme retained on particles after washes
Summary of the method: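 Enzyme at 10 μM final was incubated 30 min with 0.5% hydroxyapatite nanoparticles in 10 mM phosphate pH 7.2, then centrifuged and washed three times. Input, wash supernatants and particles were run on SDS-PAGE with Coomassie-type staining; band strength scored relative to input (=1).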

Molecule	Peracetic acid (ppm) On Enamel [1]	PAA (ppm) generated after each round of whitening, Rd2 [2]	PAA (ppm) generated after each round of whitening, Rd3 [2]	PAA (ppm) generated after each round of whitening, Rd4 [2]	PAA (ppm) generated after each round of whitening, Rd5 [2]	PAA (ppm) generated after each round of whitening, Rd1 [2]	Whiteness Index Rd1 [3]	Whiteness Index Rd2 [3]	Whiteness Index Rd3 [3]	Whiteness Index Rd4 [3]	Whiteness Index Rd5 [3]	ΔWI [3]	Whiteness Index Before [3]	Maximum Peracetic Acid (ppm), Propylene glycol diacetate [4]	Peracetic acid (ppm) In Solution [5]	Maximum Peracetic Acid (ppm), Sucrose octaacetate [6]	Unbound (relative band strength) [7]	HAP Particles (relative band strength) [7]	Wash1 (relative band strength) [7]	Wash2 (relative band strength) [7]	also measured
B1	628 ppm	41.0 ppm	30.2 ppm	39.3 ppm	47.1 ppm	33.2 ppm	−129.5	−129.5	−129.2	−125.1	−122.1	17.9	−140.0	2165 ppm	4270 ppm	2768 ppm	0.98	0.01	0.01	0.0	binding to / retention on hydroxyapatite (in words) ([7]; after washes): does not bind to hydroxyapatite
B2	1040 ppm	496.7 ppm	716.5 ppm	998.5 ppm	1224.5 ppm	383.5 ppm	−106.7	−96.0	−88.7	−85.7	−76.6	44.2	−120.8	2109 ppm	5519 ppm	2070 ppm	0.5	0.5	0.01	0.0	–

Source: patent publication US8663616B2, “Enzymatic peracid generation for use in oral care products” (E I du Pont de Nemours and Company, priority 2010, dated 2014)
